The DeepSol protein solubility set

Experiment: soluble on expression in E. coli; label from the status in PepcDB or PDB records
For “MSLGKSNVLVTMPVAPTMEVKSFPILDQCVGQVGLNFELSFTGAPPYYYNTKIYKLENGERKLYDAKRYTSEGTRNRFSYSPPKEGNYEIVFDTVSNKLFTEPIKLEPVKEYTFKTSMRVKPSASLKLHHDLKLCLGDHSSVPVALKGQGPFTLTYDIIETFSSKRKTFEIKEIKTNEYVIKTPVFTTGGDYILSLVSIKDSTGCVVGLSQPDAKIQVRRDIPSAAFNFFEPIKEAKIKHGSVTEIPLKLSGEGPFTVKFKHMDYDGNIVKEFENKFQNSYKPALKVSKEGLYQLVDIRDSSCQGNVIYRNSLYKVSFLEKPKFAIQDNHHITKVTENLFSKEEVCQGMEGTVDLALFGSPPFILEYDLMAPNGHISTKKIQVATKYASLKLPNQIPGEYITTIKAIFDGNYGESDIHFREHQSELIIKQTVHPIPDVAFADGGKTLRACAANVDQISFLEPINLKFLQGESPFSITFSVYHESTSRTDQYTIDNIDSENFSFEKLYEGMKLGNHAITIDSVVDANGCVNSLISGPRNQILVSITDAPKIHILDPSTEYCVGDYVAYQLNGVAPFMIKYEFNGIPLKSKERSSQFVRLASEPGIISITSLQDSSSQCIVDFTNPKLKSEFDDEGHHHHHH”, the “soluble on expression in E. coli” value was “soluble”. With “MSLGKYFGTDGVRGVANSELTPELAFRLGRMGGYVLTRHVGEHPRVLVARDTRISGEMLESALIAGLVSVGIEVMRLGVISTPGVAYLTKAQGASASVMISASHNPVDDNGIKFFGSDGFKLSDDQEEEIEQLLDTAEDTLPRPSGEGLGTVSDYFEGKQKYIQYLKQTIENDFNGYHIALDCANGATSGLATHLFADLDADISSMGASPNGLNINDGVGSTHPEALAAFVLDKKADVGLAFDGDGDRVIAIDEIGQIVDGDKIMFICAKYLREQGLLNNNTIVSTVMSNLGFYKGLKELEIEDVQTAVGDRYVVEAMREGNYNLGGEQSGHIIFLDHNTTGDGLLSGIQLINVMKATGKKLSELAAEMKTFPQKLENIRVSDKNHVTDNPKVSKVIGEVEAEMAGNGRVLVRPSGTEPLVRVMVEAATKEETDEYCERISAVVRSEMALNDEGHHHHHH” the “soluble on expression in E. coli” value was “soluble”. For “MSLGLLDNVKKMVKKEATENPQQTSDDQKQVQAIHVTNGIDPKVIDAMNERMTKIENDLGKLSGEMEGQKKTLNDIKNELEGIKENVKMVVSLYELVSRDFNPFMDKTPEEIRGITDTLAEQVNNVKQLVEAAIKDLRELYGVPDIDQFIQMEEKKEGHHHHHH”, the “soluble on expression in E. coli” value was “soluble”. In the case of “MSLGLPKMEVFQEYYGLPPPPGAIGPFLRLNPGDIVELTKAEAEQNWWEGRNTSTNEIGWFPCNRVKPYVHGPPQDLSVHLWYAGPMERAGAESILANRSDGTFLVRQRVKDAAEFAISIKYNVEVKHIKIMTAEGLYRITEKKAFRGLTELVEFYQQNSLKDCFKSLDTTLQFPFKEPEKRTISRPAVGSTKYFGTAKARYDFCARDRSELSLKEGDIIKILNKKGQQGWWRGEIYGRVGWFPANYVEEDYSEEGHHHHHH”, the “soluble on expression in E. coli” value is reported as “soluble”. For “MSLGMPSKQREYSNRFFDSTVWNDFAFRDDDVVIASYAKAGTTWVQQIVAQLIFGGAEEIEVSRLSPWFDSVYPDKATKQRLLAEQRHRRFVKTHLPADALVLSERARYLYVGRDARDIVWSLYDHQRAVSADAQARLDAEPSSNGKLRVMPPPTCSVEDYFQTWMRADGAPLWPFWEGVRSWWALRDYDNVLLVHYAALLHDLPAQVRRIAAFLDIPLDAPCCERVLAHCSLDYMRAHAARYVPQGAGFWRDGGRAFFNQGLNGRWRDRLAPAVDAAYRQHVVAELGAECARWLATGDVASEGHHHHHH”, the “soluble on expression in E. coli” value was “soluble”. With “MSLGPVVHQTSSRFRRRSAQPTWDMSDGCADAIAFRVDSEGIKLHGFGIYLPTEPDRRNFVGEIMMLSPDSSEKWTCLLRVTAEMSSEEKEVGIVRFPEYVLLSPGVTYAVKVNMMKNTKTFCGEGGVTQVHLLNGARLFFSGCSMSQNGTTVQRGQLPYLIYSILDQSNSLQIKQEGHHHHHH” the “soluble on expression in E. coli” value was “soluble”. For “MSLGQVEVIDRRQSVFGDDIQLQKRSSSYEIISNGVFLMSTENGRSEREMVTLGAQHMKNAVHSVLIGGLGVGITADEAVHLNDHVQVHVVEIEPSVVEWQYRYLYPFSNQALEHERTAIIISDIQQWLRTNERTYDLICLDTDNGPDWMVHKQNASLYGKIGLELVRERVRVGGAVSFWSASASESFLHELETLFDRVYEHAVSISHTLPPDYVYVACREGHHHHHH”, the “soluble on expression in E. coli” value was “not soluble”. With “MSLGRLEKRFSFAFCSYWRPFRRPLRTHHGLWSVREGILIRLTDRETGCQGYGEIAPIPWFGSETLEQALAFCRQLPPLLSEAYILGIPEALPACRFGLEGAWLACRDPDWLNKDLSLLSFCELLGETLPPESYKDSYKDSVPLTRSVYKLKVGRDPMQQELEKLEQWLERLPPGSRLRLDANGGLSLAEAHRWLMVCDRLNQDSPGKIEFLEQPLPPDQHSHLVELSRQYQTPIALDESVACLEQLQAVHRSGWTGILVVKPSLVGSCIALREYLSRHPGLDLVFSSALETAIGAWHGLAWAGSLQAKTASPRAVGWGVGEFFQEGDPLTLTQLSAQERAALMQAVWERYSREGHHHHHH” the “soluble on expression in E. coli” value was “soluble”. For “MSLHEMSFAEAIIRNVLRFAEEKQAKTVTSVRVRVGELLLINPEQLQFCFSVASKGTIAEGAKLEISVERADIRCLLCGRELSKDEMLCECGGFAQVKGGKDFILESVVVEVEGHHHHHH”, the “soluble on expression in E. coli” value was “soluble”. In the case of “MSLHHLTTYITHDTLISALGFGTQENLEAIRSYHSGITLQTDKRIADTPLLAATLSQERLQQQAEAIGVSGYPRMEQLFILTINELIRQSGQTLEDKTCGLILSTTKGNIDLLARHTEHPDEAVFLWKMAENIAGYFHAEERVHVISNACISGVSALIAGKRMIENGIYRRVIVAGGDLLSHFITSGFGSFRSLSSRPCRPYDSSRDGLNLGEACGAVLLSSEGTEEHVILSGGAVSNDANHISGPSRTGDGLYFAIRQAMQEAGTAPQDISFVNAHGTATVYNDEMESKALTLAHLEQVPVHSLKPYFGHTLGASGIIESIVCMHELKQGILFGTPGYETPGVPMPIPVYATHRSIPMKHCVKTASGFGGCNAAIVLSLPEYTPFKDEDNTLPEIRCTREVRIENSSVFINNELIFHSEEPDFGTFIRDTYKKTGGNNLKFYKMDDLCKLGYVAAEYLLEGKTFAPLEMGMLLANAASSLHTDIRHQQLIDREGDQAASPAVFVYTLPNVVSGEICIRHKIQGENTFFITEAYQPEKLERYARIVMQKGKLNYCIIGWCELWKNTYKAVFKLIEKEGHHHHHH”, the “soluble on expression in E. coli” value is reported as “soluble”. In the case of “MSLHLNDQWVLCAPTDNFENKKEIFFTPQGAFGTGLHETTQDILKFIVEEDFEGKSLLDLGTGSGILSIAAGVKGASKIVAVDIRDVEDEVLLNASLNELENIEVVVGNVLHEEYKLNEKFDWIFINIGGEETAMFMDFIEEHIEKTGKLLVSGLVEWSFDWVKEKVENKGFKLNKKFQTNEWCTAIFSKEGHHHHHH”, the “soluble on expression in E. coli” value is reported as “soluble”. For “MSLHQILVVDDDAVSQQFLVMVLQRLGYANVVVASDGLDALIQLDAGDRRFDVIFCDLDMPRMDGIEFVRHLGERAFQGKLLISSGFDERVLESVAELARMYDLWLAGVLPKPINHQALQRLINQAPPASRHPTHAVAPPTEDELRAAIGKGEIRPFLQPQVLLADGRIRSAEVLARWQHPRLGLIGPQQFIQLAEHSSLITELTLQLLKQAAASMDRLPSETPMEMSLNLSVASLNEIALVSQFERILNDCGFPFSRLTVEVTETGLMANPTRALELLTRLRLKGARLAIDDFGTGFASMDRLSRIPFTELKIDKSFVIDAARNPTNLSIVRASAELGRQLGLVVVAEGVATESEWRLCQQLDVEIVQGSFISPPVDAESFRRWLLKHRGEGHHHHHH”, the “soluble on expression in E. coli” value was “soluble”. In the case of “MSLHRLASLPGGWTPAMEGVIIVEQTPAPLIFLTAADTDIQAIARVWPRLPGDFPDLRVCNLLNLQQSFSLDDYGDRVLGQAEVIVVRLLGGKSYWPYGLEVLGELTVTKPDLKLFVLPGDDRPDPSLMNQSTVPLTAVHCLWQYFAEGGTDNIRHGLMWLGDYGFGRNYRPPAPQMVPKVGIYRPEGHHHHHH”, the “soluble on expression in E. coli” value is reported as “soluble”. For “MSLHTSHVIPAPRIDVWEWHTRPGAVFRLTPPFLPLRPLEQATSLAKGTTVFALPAGLRWEARHDLSGYIQHHRFTDVCINAPVKSLASWRHIHDFTDHPSGTLITDTVHTRAPRTTLSPAFAYRQHQLINDIQAQQRFYELTRSNPTESTPLTIGLTGSRGLVGRALTAQLTTLGHTVVQLVRGESKPHQRHWDPAHPAPNLLEGLDALIHLAGEPILGRFNDAHKADIRDSRIEPTRQLSQLVQKSSTCRTMVSASAIGYYGHARGDEILDEGSTQGDDFLASVCEEWEAASRTDATSNKRIVNIRTGVVMSGRGGMLPVLKAVFSVGLGGPFRGSNPWMSWIAIDDLCDIYIRAVLDPKLSGAINAVAPNPIKNQDFVDALAKELKRPAKMTISSLGPAILLGQQGAKELALADQRVQPRVLNNLDHHFRYVDIRSCLAHELGGENLLDI”, the “soluble on expression in E. coli” value was “not soluble”. With “MSLIDAEHIEIALDKRYLRESYLPERALDDILDGQVIIETQGEQVGQVNGLTVIEVTGHPMPYGEPARISCVIHFGDGDIADVERKVELGGNLHAKGMMIMQAFVSSALNLDGSLPFSASIVFEQSYSEVDGDSASLAELCSLVSALSEYPIDQQIAVTGAVDQFGRVQAVGGLNEKIEGFYRVCCHQGLTGEQGVILPSSNLKHLALHKSVVESIKNGEFNIWPVSTVDEAIPLLMGKPFRGEDEDSVIAKIAERIDNFEKLVEGHHHHHH” the “soluble on expression in E. coli” value was “soluble”. For “MSLIDWTRPLADRMRPRLLTEFVGQSHLLDAGKPLREVIEAGRPHSMVFWGPPGTGKTTLARLIAEATEAEFLALSAVMAGVKEIRQASATGQANRARGRQTILFVDEVHRFNKAQQDAFLPFIEDGTVVFIGATTENPSFELNNALLSRLRTYVLRPLGEAALARIIDCALEDSERGLGTKQLALSEQARSLLIQAADGDARSALSLLEVAADLSAAEARIDIDLIRAAAAGGRARFDKRGEAFYDEISALHKAVRGSAPDAALYWLCRMLAGGCDPLYLARRLLRMASEDIGNADPRGLQVALNAWQAQERLGSPEGELAIAQAVVYLASVPKSDAVYRAYRLAAEDVRSHGSLEVPLALRNAPTRLLRELGYGRGYRYAHDEPEGYAAGAEYFPAELIGTRYYHPADRGLERQIGERLRRLRELDRATEGHHHHHH”, the “soluble on expression in E. coli” value was “not soluble”. In the case of “MSLIHAFIKKGCFQDSVSLMIISRKLSESENVDDVSVMMGTPANKALLDTTGFWHDDFNNATPNDICVAIRSEAADAGIAQAIMQQLEEALKQLAQGSGSSQALTQVRRWDSACQKLPDANLALISVAGEYAAELANQALDRNLNVMMFSDNVTLEDEIQLKTRAREKGLLVMGPDCGTSMIAGTPLAFANVMPEGNIGVIGASGTGIQELCSQIALAGEGITHAIGLGGRDLSREVGGISALTALEMLSADEKSEVLAFVSKPPAEAVRLKIVNAMKATGKPTVALFLGYTPAVARDENVWFASSLDEAARLACLLSRVTARRNAIAPVSSGFICGLYTGGTLAAEAAGLLAGHLGVEADDTHQHGMMLDADSHQIIDLGDDFYTVGRPHPMIDPTLRNQLIADLGAKPQVRVLLLDVVIGFGATADPAASLVSAWQKACAARLDNQPLYAIATVTGTERDPQCRSQQIATLEDAGIAVVSSLPEATLLAAALIHPLSPAAQQHTPSLLENVAVINIGLRSFALELQSASKPVVHYQWSPVAGGNKKLARLLERLQEGHHHHHH”, the “soluble on expression in E. coli” value is reported as “soluble”. In the case of “MSLIQNVYINGLSGVSAQPTFDESYVDGNVQTETIPYRKVLDPDYKQYLNPTASRRFSRLIKMSLVAAQKSIAMADGVMPEAIITGTGLGCLEDTEKFLKALIENNESMLSPTAFIQSTHNTISGQIAMMITCYYPNYTYSNRYFTFESSLLDAVLMLLDKSCKHVLVNAADEIIPAVHTIVKRMHLWDRAEAIAHKNALAVTAGEGVVSMMLSSEKKESSVAAVKALELIYILPKDTSIEAHFKKFLAEASLTAADIDVLVLGMNGDAASDVYYEPVRNLFSTSTHVVYKHHFGESFTASSFAYWLGAQLIRHKKIDASVILSDKGHRAPKRVLLYNQSHNKYHSFCLLTDVDEGHHHHHH”, the “soluble on expression in E. coli” value is reported as “not soluble”.
